Results on nine molecules are retold here after publication PMC10723402.

Where a chain is given by its changes, count along the chain named. Like-named read-outs stand apart in the source and are kept apart here.

A word on the Kd: it is the concentration at which binding is half-saturated.

Data set [1] concerns the target Gsx2HD (Mus musculus, UniProt P31316 203-264). Nature of the data set: ITC. In general terms: ITC needs no label: the signal is the heat of the interaction.
Data set [2] concerns the target T1, Gsx2 167-305 (Mus musculus, UniProt P31316 167-305). Nature of the data set: ITC.
The target of data set [3] is T2, Gsx2HD L231E (Mus musculus, UniProt P31316 203-264, L231E). As to the kind of experiment: EMSA. Background: In EMSA bound probe runs differently from free probe, usually more slowly.
T2 sequence (P31316 203-264 L231E): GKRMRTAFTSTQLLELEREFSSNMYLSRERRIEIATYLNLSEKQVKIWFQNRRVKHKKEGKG
Data set [4] has as its target T3, Gsx2HD L216E (Mus musculus, UniProt P31316 203-264, L216E). Nature of the data set: EMSA.
For data set [5], the target named is T4, Gsx2HD S212E (Mus musculus, UniProt P31316 203-264, S212E). As to the kind of experiment: EMSA.
T4 sequence (P31316 203-264 S212E): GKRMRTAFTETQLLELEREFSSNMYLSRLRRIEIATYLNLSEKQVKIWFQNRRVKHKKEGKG
Data set [6] concerns the target T1, Gsx2 167-305. As to the kind of experiment: EMSA.
Data set [7] concerns the target T1, Gsx2 167-305. Nature of the data set: EMSA. This is another data set of the same source.
Data set [8] addresses Gsx2HD I234E (Mus musculus, UniProt P31316 203-264, I234E). As to the kind of experiment: ITC.
The target in data set [9] is T2, Gsx2HD L231E. Nature of the data set: EMSA. The source holds these as a separate data set.
Data set [10] concerns the target T3, Gsx2HD L216E. As to the kind of experiment: EMSA. This is another data set of the same source.
Data set [11] deals with T4, Gsx2HD S212E. As to the kind of experiment: EMSA. This is another data set of the same source.

T1 sequence (P31316 167-305): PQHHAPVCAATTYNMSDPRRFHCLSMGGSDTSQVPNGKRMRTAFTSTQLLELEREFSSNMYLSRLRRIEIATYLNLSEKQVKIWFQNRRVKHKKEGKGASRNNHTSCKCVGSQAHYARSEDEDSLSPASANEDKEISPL
T3 sequence (P31316 203-264 L216E): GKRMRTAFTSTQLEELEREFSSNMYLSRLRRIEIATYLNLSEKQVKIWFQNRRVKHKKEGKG
Chain of Gsx2HD (P31316 203-264): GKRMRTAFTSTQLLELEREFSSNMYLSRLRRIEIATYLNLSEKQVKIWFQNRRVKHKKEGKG
Chain of Gsx2HD I234E (P31316 203-264 I234E): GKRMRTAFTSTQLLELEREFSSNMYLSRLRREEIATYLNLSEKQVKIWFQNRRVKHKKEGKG

B1: TAATGG (common Q50) monomer site 15mer (dsDNA)
DNA 1: TGAGCTAATGGAAGC
DNA 2: AGCTTCCATTAGCTC
On to B1, for which the Kd amounted to 36 nM in data set [1] and 143 nM in [2].

B2: 7bpS dimer probe (= AAATT spacer probe) (dsDNA)
DNA 1: TCCAACTAATTAAAATTTAATTCGTAGTGCGGGCGTGGCT
DNA 2: CGAATTAAATTTTAATTAGTTGGA
DNA 3: AGCCACGCCCGCACTA
In the case of B2, the binding result in [3], in [4] and in [5] was “binds” each time.

B3: AATTT spacer dimer probe (dsDNA)
DNA 1: B2 DNA 1 with A15T
DNA 2: CGAATTAAAATTTAATTAGTTGGA
DNA 3: AGCCACGCCCGCACTA
B3: the binding result in data set [6] is “binds”.

B4: GGGCC spacer dimer probe (dsDNA)
DNA 1: B2 DNA 1 with A13G, A14G, A15G, T16C, T17C
DNA 2: CGAATTAGGCCCTAATTAGTTGGA
DNA 3: AGCCACGCCCGCACTA
For B4, in data set [7], the binding result is “binds”.

B5: GCGGG spacer dimer probe (dsDNA)
DNA 1: B2 DNA 1 with A13G, A14C, A15G, T16G, T17G
DNA 2: CGAATTACCCGCTAATTAGTTGGA
DNA 3: AGCCACGCCCGCACTA
Regarding B5, the binding result in data set [7] is listed as “binds”.

B6: GCCGG spacer dimer probe (dsDNA)
DNA 1: B2 DNA 1 with A13G, A14C, A15C, T16G, T17G
DNA 2: CGAATTACCGGCTAATTAGTTGGA
DNA 3: AGCCACGCCCGCACTA
As for B6, the binding result in data set [7] is recorded as “binds”.

B7: ATATT spacer dimer probe (dsDNA)
DNA 1: B2 DNA 1 with A14T
DNA 2: CGAATTAAATATTAATTAGTTGGA
DNA 3: AGCCACGCCCGCACTA
With B7, in data set [6], the binding result was “binds”.

B8: TAATTA consensus monomer site 15mer (dsDNA)
DNA 1: TGAGCTAATTAAAGC
DNA 2: AGCTTTAATTAGCTC
B8 yielded a Kd in data set [8] of 20 nM. This counts as double-digit nanomolar.

B9: 8bpS dimer probe (dsDNA)
DNA 1: TCCAACTAATTAAAGATTTAATTCGTAGTGCGGGCGTGGCT
DNA 2: CGAATTAAATCTTTAATTAGTTGGA
DNA 3: AGCCACGCCCGCACTA
Turning to B9, the binding result in [9], in data set [10] and in [11] was “binds” throughout.
